Target: T1, GST–HCF-1-C (GST fusion of the C-terminal half of human HCF-1, 1012–2036) (human, UniProt P51610 1012-2035)
T1 construct: HCF-1 (host cell factor C1), human, C-terminal half, residues 1012-2036 as printed; the printed end 2036 may count the stop codon; also called pGEX4T-1-hHCF-1-C; source: E. coli BL21(DE3), purified from soluble lysates
T1 sequence (looked up): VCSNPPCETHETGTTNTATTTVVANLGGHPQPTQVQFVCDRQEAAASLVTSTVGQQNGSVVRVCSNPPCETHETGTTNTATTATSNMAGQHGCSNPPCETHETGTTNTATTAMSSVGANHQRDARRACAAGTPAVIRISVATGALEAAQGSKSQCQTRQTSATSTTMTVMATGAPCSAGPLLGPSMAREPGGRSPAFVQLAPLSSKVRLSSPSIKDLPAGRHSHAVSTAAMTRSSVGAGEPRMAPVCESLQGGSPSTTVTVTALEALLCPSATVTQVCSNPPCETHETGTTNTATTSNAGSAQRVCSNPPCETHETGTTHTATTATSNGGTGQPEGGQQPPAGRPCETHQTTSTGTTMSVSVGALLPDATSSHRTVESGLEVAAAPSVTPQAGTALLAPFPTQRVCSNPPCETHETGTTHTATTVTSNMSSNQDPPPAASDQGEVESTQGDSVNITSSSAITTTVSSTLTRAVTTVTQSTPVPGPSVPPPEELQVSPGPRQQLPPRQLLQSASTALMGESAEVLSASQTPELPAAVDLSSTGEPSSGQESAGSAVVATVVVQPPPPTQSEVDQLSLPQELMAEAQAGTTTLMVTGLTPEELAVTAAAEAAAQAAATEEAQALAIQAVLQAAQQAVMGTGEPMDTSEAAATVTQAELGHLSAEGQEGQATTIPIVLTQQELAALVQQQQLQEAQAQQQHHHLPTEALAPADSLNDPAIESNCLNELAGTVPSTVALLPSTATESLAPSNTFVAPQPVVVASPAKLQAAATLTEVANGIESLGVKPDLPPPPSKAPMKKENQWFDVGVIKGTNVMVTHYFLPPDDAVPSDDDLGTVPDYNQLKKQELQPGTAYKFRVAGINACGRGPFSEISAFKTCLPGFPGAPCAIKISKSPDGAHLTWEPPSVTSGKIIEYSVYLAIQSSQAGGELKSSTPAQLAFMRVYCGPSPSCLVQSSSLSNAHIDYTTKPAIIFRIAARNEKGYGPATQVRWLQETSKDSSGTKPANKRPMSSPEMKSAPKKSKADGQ
Assay: pull-down; glutathione-Sepharose-immobilized GST-OGT and GST–HCF-1-C incubated with recombinant His6-tagged NRF1 fragments Fr. 1 and Fr. 2; washed extensively with PBS-T; immunoblot with anti-His6 and anti-GST
Details: both partners purified

B1: mNRF1-Neh6L-His6 (Fr. 2; 431–580) (domain or fragment, mouse, UniProt Q61985 431-580, looked up)
chain: GFNPVQASQLEEEFDSDSGLSLDSSHSPSSLSSSEGSSSSSSSSSSSSASSSASSSFSEEGAVGYSSDSETLDLEEAEGAVGYQPEYSKFCRMSYQDPSQLSCLPYLEHVGHNHTYNMAPSALDSADLPPPSTLKKGSKEKQADFLDKQM
notes: NRF1, mouse, Neh6L domain, residues 431-580; The name is printed both as NRF1-Neh6L-His6 and as His6-NRF1-Neh6L; also called His6-NRF1-Neh6L; fragment 2; source: E. coli BL21(DE3), purified (Ni-NTA agarose)
  binding result: binds
